{"source": "patent US10377818B2", "about": "“Method of treating glioma” (The Board of Trustees of the Leland Stanford Junior …, priority 2015, dated 2019)", "molecules": {"B1": {"name": "NLGN3: Recombinant full-length neuroligin-3 (Origene), tested as glioma mitogen (protein, listed as Mus musculus)", "chain": "MWLQPSLSLSPTPTVGRSLCLTLGFLSLVLRASTQAPAPTVNTHFGKLRGARVPLPSEILGPVDQYLGVPYAAPPIGEKRFLPPEPPPSWSGIRNATHFPPVCPQNIHTAVPEVMLPVWFTANLDIVATYIQEPNEDCLYLNVYVPTEDGSGAKKQGEDLADNDGDEDEDIRDSGAKPVMVYIHGGSYMEGTGNMIDGSVLASYGNVIVITLNYRVGVLGFLSTGDQAAKGNYGLLDQIQALRWVSENIAFFGGDPRRITVFGSGIGASCVSLLTLSHHSEGLFQRAIIQSGSALSSWAVNYQPVKYTSLLADKVGCNVLDTVDMVDCLRQKSAKELVEQDIQPARYHVAFGPVIDGDVIPDDPEILMEQGEFLNYDIMLGVNQGEGLKFVEGVVDPEDGVSGTDFDYSVSNFVDNLYGYPEGKDTLRETIKFMYTDWADRDNPETRRKTLVALFTDHQWVEPSVVTADLHARYGSPTYFYAFYHHCQSLMKPAWSDAAHGDEVPYVFGVPMVGPTDLFPCNFSKNDVMLSAVVMTYWTNFAKTGDPNKPVPQDTKFIHTKANRFEEVAWSKYNPRDQLYLHIGLKPRVRDHYRATKVAFWKHLVPHLYNLHDMFHYTSTTTKVPPPDTTHSSHITRRPNGKTWSTKRPAISPAYSNENAPGSWNGDQDAGPLLVENPRDYSTELSVTIAVGASLLFLNVLAFAALYYRKDKRRQEPLRQPSPQRGTGAPELGTAPEEELAALQLGPTHHECEAGPPHDTLRLTALPDYTLTLRRSPDDIPLMTPNTITMIPNSLVGLQTLHPYNTFAAGFNSTGLPHSHSTTRV"}}, "type_in_all_cases": "cell-based, human", "key": {"[1]": {"tested_on": "HGG patient-derived cell lines (pediatric cortical glioblastoma, DIPG, adult glioblastoma)", "assay": "EdU proliferation index of various HGG patient-derived cell lines exposed to NLGN3", "conditions": "50 nM NLGN3 for 24 hours", "procedure": "A) Recombinant NLGN3 promotes pediatric high-grade glioma cell proliferation in a dose-dependent manner, plateauing at a low nanomolar concentration. 7-point dose curve plots proliferation index as measured by EdU^+/DAPI^+ staining at 24 hours following exposure of SU-pcGBM2 cells to NLGN3 at concentrations ranging from 0-100 nM. Shaded region indicates concentration present in active CM. B) Proliferation indices of various HGG patient-derived cell lines exposed to 50 nM NLGN3 for 24 hours. Data are shown as mean±SEM. ***P<0.001 by unpaired two-tailed Student's t-tests. C) Neurexin-1β, which binds to NLGN3 with high affinity, abrogates the mitogenic effect of active slice CM. […]\nNLGN3 promotes proliferation in a broad range of HGG cultures. […] After 24-hour exposure, all cell lines were evaluated with the EdU assay to determine proliferation index (unpaired two-tailed Student's t-tests).\nTo assess the number of cells actively synthesizing new DNA in response to various conditions (see extended experimental procedures), SU-pcGBM2, SU-DIPGIV, SU-DIPGXIII, or SU-GBM035 cells were exposed to active CM or various recombinant proteins along with 10-μM EdU and fixed after 24 hours. EdU incorporation was determined using Click-iT EdU visualization (Invitrogen, Grand Island, N.Y.). […]"}, "[2]": {"tested_on": "mTOR (phospho-4E-BP1 T37/46)", "assay": "Western blot of phospho-4E-BP1 as reporter of mTOR activity", "conditions": "50 nM NLGN3 vs aCSF", "procedure": "Top panel, 4E-P1^T37/46; bottom panel, total 4E-BP1. B) Quantification of p4E-BP1T37/46/4E-BP1 ratio fold change after NLGN3 exposure normalized to aCSF control (unpaired two-tailed Student's t-test). C) 50 nM NLGN3-induced increase in SU-pcGBM2 proliferation index (EdU assay) is blocked by inhibition of PI3K by BKM120 (100 nM). […] All experiments performed in n=3 biological replicates. Data shown as mean±SEM. (See also FIG. 34, Table in FIG. 18.)\nEndogenous protein levels were determined using Western blot analysis. Briefly, after various treatments, 400,000 SU-pcGBM2 cells were lysed and loaded onto SDS-PAGE gels. Proteins were separated with gel electrophoresis and transferred to a PVDF membrane. Proteins were then probed for various antibodies as described in extended experimental procedures."}, "[3]": {"tested_on": "NLGN3 protein in SU-pcGBM2 cells", "assay": "Western blot of NLGN3 protein expression in glioma cells", "conditions": "50 nM NLGN3 for 12 hours, then 24 hours recovery in fresh media", "procedure": "A) Signaling through the PI3K pathway increases in response to NLGN3. Representative Western blot illustrating increased phosphorylation of AKT in response to various concentrations of NLGN3 ranging from 0-50 nM. p-AKT is shown in top panel; total AKT is shown in the bottom panel. B) Quantification of the increased fold change of pAKT/AKT ratio in response to NLGN3 at various doses (oneway ANOVA, F=17.99, P<001; data shown as mean±SEM; *P<0.05, **P<0.01, ***P<0.001 by Tukey's post-hoc tests to further examine pairwise comparisons). Fold change is normalized to blank media (aCSF). (C) Fos mRNA expression increases after 1 hour exposure to […] 50 nM NLGN3 (data shown as mean±SEM; **P<0.01 by unpaired two-tailed Student's t-test). D) NLGN3 mRNA expression increases after 12 hour exposure to 50 nM NLGN3 vs. vehicle in SU-[…] cells. Data shown as mean±SEM; *P<0.05 by unpaired two-tailed Student's t-test. […]\nEndogenous protein levels were determined using Western blot analysis. […]\nBriefly, in FIG. 5, panel A, cells were lysed after 1-hour exposure to 0 nM, 5 nM, 10 nM, or 50 nM recombinant NLGN3 (Origene Technologies, Rockville, Md.), using RIPA buffer and protease inhibitors. […] Protein concentration in the lysate was determined using a Bradford assay. […] Proteins were visualized using Clarity ECL Western Substrate (BioRad, Hercules, Calif.) and quantified using ImageJ."}}, "data": [{"molecule": "B1", "values": [{"measurement": "effect on proliferation index", "setting": "[1]", "result": "promoted a significant increase in the proliferation index"}, {"measurement": "phospho-4E-BP1 T37/46 relative to total 4E-BP1", "setting": "[2]", "result": "increase in phospho-4E-BP1^T37/46 relative to total 4E-BP1"}, {"measurement": "NLGN3 protein expression", "setting": "[3]", "result": "Protein expression of NLGN3 following glioma cell NLGN3 exposure was confirmed"}]}]}
